Measurements reported in the supplement of paper PMC10126150.
± gives the standard deviation of the averaged measurements.

Test system: ATP
Assay: switch fluorescence ratio, 500 uM ATP over buffer (Cy3 cluster intensity, sum of 5 cycles each) (fold (ratio)); higher = stronger signal-on switching upon ATP binding; sequences stand for … in TCGTCGGCAGCGTCAGATGTGTATAAGAGACAGTTTTTTTTTTTTTTTTTTTTTTTTT…TC
Conditions: aptamer strand: ATP DNA aptamer (quencher-CACCTGGGGGAGTATTGCGGAGGAAGG + anchor), 100 nM annealed; ATP concentration: 500 uM
In short: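 Switching-strand clusters labelled with Cy3 on a modified Illumina MiSeq flow-cell were annealed to 100 nM quencher-labelled ATP aptamer, imaged in selection buffer, and re-imaged after 15 min with 500 uM ATP at 22 °C. This was done over five cycles with NaOH stripping and re-annealing in between. The fluorescence ratio is summed target-cycle over summed buffer-cycle Cy3 intensity per cluster, averaged per switch-domain sequence, excluding clusters outside 100-1000 RFU.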
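Also: ATP exposure 15 min at 22 °C before imaging.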

Row | Sequence | switch fluorescence ratio
1 | GAAGGGGGAT | 1.02 ± 0.051
2 | GAAGGGGGTA | 0.996 ± 0.028
3 | GAAGGGTATT | 1.01 ± 0.026
4 | GAAGGGTGCG | 1.02 ± 0.034
5 | GAAGGTGAAT | 1.04 ± 0.022
6 | GAAGGTTAGG | 0.9866 ± 0.0081
7 | GAAGTACGTC | 1.23 ± 0.18
8 | GAAGTAGAGG | 1 ± 0.032
9 | GAAGTAGCAG | 0.984 ± 0.025
10 | GAAGTAGTGG | 1.01 ± 0.014
11 | GAAGTATGAT | 0.962 ± 0.042
12 | GAAGTCGAAT | 1.014 ± 0.0091
13 | GAAGTCGGAT | 0.979 ± 0.019
14 | GAAGTTTAAA | 1.02 ± 0.035
15 | GAAGTTTGAT | 0.9867 ± 0.0011
16 | GAATAAAGAG | 0.966 ± 0.034
17 | GAATAACTGG | 0.993 ± 0.084
18 | GAATAAGGGA | 1 ± 0.014
19 | GAATAAGTCC | 1.04 ± 0.028
20 | GAATAATGAT | 0.989 ± 0.028
21 | GAATACGGGG | 1.06 ± 0.044
22 | GAATAGAGGT | 1.02 ± 0.037
23 | GAATATAATG | 0.978 ± 0.032
24 | GAATATTTAG | 0.958 ± 0.015
25 | GAATATTTCT | 1.02 ± 0.021

Row | Sequence | switch fluorescence ratio
26 | GAATCAGTGT | 1 ± 0.022
27 | GAATCGGCAT | 1.02 ± 0.039
28 | GAATCGGGGA | 1.012 ± 0.0031
29 | GAATCTGTGT | 0.998 ± 0.031
30 | GAATCTTGGA | 0.99 ± 0.015
31 | GAATGAGTCT | 1.01 ± 0.091
32 | GAATGCTCAC | 1.14 ± 0.064
33 | GAATGGCCAG | 0.992 ± 0.034
34 | GAATGGGACG | 1 ± 0.021
35 | GAATGGGATC | 0.9698 ± 0.0059
36 | GAATGGGGCA | 0.978 ± 0.032
37 | GAATGGGGTC | 0.976 ± 0.011
38 | GAATGGGGTT | 0.98 ± 0.026
39 | GAATGGGTAG | 0.9961 ± 0.0042
40 | GAATGGTTTT | 0.971 ± 0.084
41 | GAATGTAGTT | 1.01 ± 0.017
42 | GAATGTATGG | 1.04 ± 0.049
43 | GAATTAAGTT | 1.01 ± 0.033
44 | GAATTACGGC | 1.04 ± 0.069
45 | GAATTAGCTT | 0.983 ± 0.023
46 | GAATTAGTGT | 0.984 ± 0.019
47 | GAATTATGGC | 1.01 ± 0.085
48 | GAATTATTAA | 0.9922 ± 0.0026
49 | GAATTCGGCT | 1.0193 ± 6.4e-05
50 | GAATTCTCCG | 1.18 ± 0.012

Row | Sequence | switch fluorescence ratio
51 | GAATTCTCGT | 0.969 ± 0.024
52 | GAATTCTGAG | 1.02 ± 0.04
53 | GAATTGGATG | 0.965 ± 0.052
54 | GAATTGGGAG | 0.998 ± 0.02
55 | GAATTGGTTT | 0.999 ± 0.017
56 | GAATTGTTCG | 0.985 ± 0.051
57 | GAATTTGTTT | 0.984 ± 0.035
58 | GAATTTTCG | 1.009 ± 0.0097
59 | GAATTTTTGA | 0.991 ± 0.021
60 | GACAAAGATT | 1.0037 ± 0.00037
61 | GACAATAGGC | 1.1 ± 0.045
62 | GACAATGGTT | 1 ± 0.027
63 | GACAATTCGG | 1.01 ± 0.021
64 | GACAGAAGGC | 1 ± 0.052
65 | GACAGATATG | 0.979 ± 0.081
66 | GACAGCCCAG | 1 ± 0.019
67 | GACAGGGATG | 1.02 ± 0.039
68 | GACAGGTCGT | 1.043 ± 0.0054
69 | GACAGGTGGG | 1.07 ± 0.059
70 | GACATAAAAG | 1.03 ± 0.053
71 | GACATTCTCG | 1.005 ± 0.0086
72 | GACATTTGTT | 0.986 ± 0.014
73 | GACCACGGTC | 1.02 ± 0.041
74 | GACCACTATC | 1.1 ± 0.02
75 | GACCATACGT | 1.49 ± 0.026

Row | Sequence | switch fluorescence ratio
76 | GACCATGAAA | 0.96295 ± 0.0008
77 | GACCATGGGG | 1.07 ± 0.098
78 | GACCATTGTC | 0.99 ± 0.063
79 | GACCATTTAA | 1.023 ± 0.0027
80 | GACCCGCCAA | 4.89 ± 1
81 | GACCCTTACC | 1.38 ± 0.014
82 | GACCGATTGT | 1.03 ± 0.065
83 | GACCGCAGCA | 4.22 ± 0.49
84 | GACCTTGGGA | 0.992 ± 0.039
85 | GACCTTTCGT | 1.1 ± 0.069
86 | GACGAAAAAG | 0.982 ± 0.017
87 | GACGACATGT | 1.09 ± 0.035
88 | GACGACGTGC | 2.33 ± 0.44
89 | GACGACTCGG | 0.987 ± 0.026
90 | GACGAGCCTG | 0.996 ± 0.015
91 | GACGAGGGGC | 1.18 ± 0.031
92 | GACGATTATA | 1.028 ± 0.0017
93 | GACGCACTGG | 1.853 ± 0.0015
94 | GACGCGTGTG | 1.03 ± 0.042
95 | GACGCTAAGG | 1.094 ± 0.0069
96 | GACGGAGGCA | 1.03 ± 0.031
97 | GACGGATACA | 1.38 ± 0.091
98 | GACGGCTATG | 1 ± 0.048
99 | GACGGGCAGG | 1.027 ± 0.0056
100 | GACGGGGAAG | 1.08 ± 0.069

Row | Sequence | switch fluorescence ratio
101 | GACGGGGAAT | 0.979 ± 0.01
102 | GACGGGGCGG | 0.994 ± 0.031
103 | GACGGGGCTA | 1.01 ± 0.023
104 | GACGGGGGGA | 1.03 ± 0.077
105 | GACGGGGGGG | 1 ± 0.023
106 | GACGGTAAAA | 1.04 ± 0.015
107 | GACGGTAGTA | 1.02 ± 0.017
108 | GACGGTGTGC | 1.077 ± 0.0059
109 | GACGGTTCAG | 1.03 ± 0.023
110 | GACGTACAAC | 1.619 ± 0.0099
111 | GACGTACTCA | 1.51 ± 0.17
112 | GACGTCTGGC | 1.14 ± 0.24
113 | GACGTGATCC | 2.5 ± 0.8
114 | GACGTGTTG | 1.01 ± 0.025
115 | GACGTTAAAC | 1.56 ± 0.019
116 | GACGTTAAAT | 1.01 ± 0.034
117 | GACGTTTTGC | 1.073 ± 0.0083
118 | GACTAACGCA | 1.25 ± 0.057
119 | GACTAACGGA | 1.19 ± 0.1
120 | GACTAACTAC | 1.251 ± 0.0087
121 | GACTAAGGGG | 1 ± 0.02
122 | GACTAATTAA | 0.978 ± 0.036
123 | GACTAGGCCT | 0.988 ± 0.02
124 | GACTAGTTAT | 0.993 ± 0.019
125 | GACTATAATT | 1.026 ± 0.0032

Row | Sequence | switch fluorescence ratio
126 | GACTATGAGG | 1.02 ± 0.095
127 | GACTATTGAA | 1 ± 0.056
128 | GACTCAGGGG | 1.39 ± 0.56
129 | GACTGCGGAA | 2.04 ± 0.038
130 | GACTGGATAG | 0.983 ± 0.022
131 | GACTGTAGGA | 1.03 ± 0.0051
132 | GACTGTGAGA | 1 ± 0.034
133 | GACTGTTATG | 0.989 ± 0.024
134 | GACTTAATGG | 0.962 ± 0.051
135 | GACTTAGTGT | 1.012 ± 0.0036
136 | GACTTATGAG | 1.01 ± 0.047
137 | GACTTGAATG | 0.976 ± 0.011
138 | GACTTGACTG | 1.11 ± 0.03
139 | GACTTGGGTG | 1.02 ± 0.038
140 | GACTTGTGTA | 0.994 ± 0.016
141 | GACTTTAGGG | 1.02 ± 0.065
142 | GAGAAAAATG | 0.9597 ± 0.0087
143 | GAGAAAAGGG | 1.04 ± 0.037
144 | GAGAAAGCTA | 1.031 ± 0.0084
145 | GAGAAAGGTT | 1.09 ± 0.2
146 | GAGAACATGG | 1.03 ± 0.035
147 | GAGAAGGGAC | 1.03 ± 0.046
148 | GAGAATGGGG | 0.983 ± 0.024
149 | GAGAATTGTA | 0.97 ± 0.03
150 | GAGACAATTC | 1.06 ± 0.017

Row | Sequence | switch fluorescence ratio
151 | GAGACGCTTT | 1.04 ± 0.049
152 | GAGACTATTT | 0.976 ± 0.056
153 | GAGACTGATG | 1.05 ± 0.14
154 | GAGACTTAGA | 1.007 ± 0.0038
155 | GAGACTTGTT | 0.997 ± 0.042
156 | GAGAGCCGAA | 1.02 ± 0.062
157 | GAGAGCGGGG | 0.968 ± 0.033
158 | GAGAGGGAAT | 1.021 ± 0.0091
159 | GAGAGGGGTA | 0.974 ± 0.014
160 | GAGAGGGTAC | 1.03 ± 0.063
161 | GAGAGTGAAT | 1.01 ± 0.081
162 | GAGAGTTAAA | 0.976 ± 0.015
163 | GAGATAAGAG | 1.01 ± 0.022
164 | GAGATAAGCT | 1.04 ± 0.022
165 | GAGATAGAGA | 1.02 ± 0.03
166 | GAGATATTGT | 1.03 ± 0.038
167 | GAGATCGTCG | 0.993 ± 0.01
168 | GAGATCTTGG | 0.9824 ± 0.0045
169 | GAGATGAGCG | 0.997 ± 0.035
170 | GAGATGCGAG | 0.963 ± 0.021
171 | GAGATGTGCG | 0.9319 ± 0.008
172 | GAGATTGGGT | 1.001 ± 0.0077
173 | GAGATTTTTT | 1.018 ± 0.0091
174 | GAGCAATTTT | 2.31 ± 0.15
175 | GAGCACAGGT | 2.33 ± 0.12

Row | Sequence | switch fluorescence ratio
176 | GAGCACGTAT | 1.03 ± 0.063
177 | GAGCCACCAC | 1.051 ± 0.002
178 | GAGCCCTCGG | 0.999 ± 0.023
179 | GAGCCGGGCC | 0.99 ± 0.023
180 | GAGCGAGAAG | 1.01 ± 0.028
181 | GAGCGATGTC | 1.07 ± 0.035
182 | GAGCGCCCGT | 1.01 ± 0.0017
183 | GAGCGCCGGG | 1.01 ± 0.017
184 | GAGCGGGGGT | 1.01 ± 0.013
185 | GAGCTAGGAG | 1 ± 0.024
186 | GAGCTGGGGA | 0.983 ± 0.012
187 | GAGCTTGCGA | 1.03 ± 0.044
188 | GAGCTTTGAT | 0.996 ± 0.024
189 | GAGCTTTGTT | 0.984 ± 0.018
190 | GAGCTTTTGA | 0.971 ± 0.04
191 | GAGGAAAGGC | 0.999 ± 0.058
192 | GAGGAACGTG | 0.967 ± 0.014
193 | GAGGAAGCGA | 1.18 ± 0.059
194 | GAGGACTTAG | 0.989 ± 0.022
195 | GAGGAGAAGA | 1.02 ± 0.027
196 | GAGGAGAATT | 0.983 ± 0.018
197 | GAGGAGACGT | 1.03 ± 0.019
198 | GAGGAGCGGT | 1 ± 0.017
199 | GAGGAGGCCA | 0.9828 ± 0.0053
200 | GAGGAGGGGA | 1.01 ± 0.018
